The values that follow come from publication PMC3474183.

The target of the assay is lymphocyte-derived soluble LIGHT (TNFSF 14) (human (endogenous in PBMC)). As to the kind of experiment: SEC. For orientation: Size exclusion chromatography separates by hydrodynamic size, large species first.

As for “lymphocyte-derived soluble LIGHT (TNFSF 14) (ligand)”, the stoichiometry N (as a rule, the number of molecules, sites or subunits per partner or assembly) came out at 3.
